Measured values from PMC4609117.

What was measured:
[1] = target: T1, Ms0535 (GntR family, FadR/VanR-like regulator) (Mycobacterium smegmatis mc2 155, UniProt A0QPV8 1-212); assay: EMSA; 0-4 uM protein; only one shifted band; conditions: protein: recombinant; tags: His-tag (pET28a); chain copies: 2; blunt
[2] = target: T1, Ms0535 (GntR family, FadR/VanR-like …); assay: EMSA; 0-4 uM protein; conditions: protein: recombinant; tags: His-tag (pET28a); chain copies: 2; blunt

Binder | binding result [1] | binding result [2]
Ms0535p1 (one IR mutated) (dsDNA) DNA 1: CACACCGTTCCATGCATGTTCTTGCATGCAAGGCGCGCTA DNA 2: TAGCGCGCCTTGCATGCAAGAACATGCATGGAACGGTGTG | binds | 
Ms0535p7 (both IRs mutated) (dsDNA) DNA 1: CACACCGTTCCATGCATGTTCTCATGCATGGAACGCGCTA DNA 2: TAGCGCGTTCCATGCATGAGAACATGCATGGAACGGTGTG |  | no binding
Ms0535p0 (dsDNA) DNA 1: CACACCGCCTTGCATGCATTCTTGCATGCAAGGCGCGCTA DNA 2: TAGCGCGCCTTGCATGCAAGAATGCATGCAAGGCGGTGTG |  | binds
Ms0535p2 (one IR mutated) (dsDNA) DNA 1: CACACCGCCTTGCATGCATTCTCATGCATGGCCCGCGCTA DNA 2: TAGCGCGGGCCATGCATGAGAATGCATGCAAGGCGGTGTG | binds | 
